Experimental data: paper PMC7463755, “C7-Prenylation of Tryptophan-Containing Cyclic Dipeptides by 7-Dimethylallyl Tryptophan Synthase Significantly Increases the Anticancer and Antimicrobial Activities” (Molecules, 2020)

Tests used:
Test in all cases: HPLC product formation, Michaelis-Menten
Assay type in all cases: biochemical, Aspergillus fumigatus
[1] = substrate: CC(C)=CCOP(=O)(O)OP(=O)(O)O; conditions: 1 mM 1a (cyclo-L-Trp-Gly), 5 mM CaCl2, 37 °C, prenyl donor
Text: (§1) HPLC product formation, Michaelis-Menten on 7-DMATS (7-dimethylallyl tryptophan synthase)

[2] = substrate: CC(C)C[C@@H]1NC(=O)[C@H](Cc2c[nH]c3ccccc23)NC1=O; conditions: 2 mM DMAPP, 5 mM CaCl2, 37 °C, prenyl acceptor
Text: as §1

[3] = substrate: C[C@@H]1NC(=O)[C@H](Cc2c[nH]c3ccccc23)NC1=O; conditions: 2 mM DMAPP, 5 mM CaCl2, 37 °C, prenyl acceptor
Text: as §1

[4] = substrate: O=C1CNC(=O)[C@H](Cc2c[nH]c3ccccc23)N1; conditions: 2 mM DMAPP, 5 mM CaCl2, 37 °C, prenyl acceptor
Text: as §1

[5] = substrate: O=C1N[C@@H](Cc2c[nH]c3ccccc23)C(=O)N[C@H]1Cc1c[nH]c2ccccc12; conditions: 2 mM DMAPP, 5 mM CaCl2, 37 °C, prenyl acceptor
Text: as §1

[6] = substrate: O=C1N[C@@H](Cc2c[nH]c3ccccc23)C(=O)N[C@H]1Cc1ccc(O)cc1; conditions: 2 mM DMAPP, 5 mM CaCl2, 37 °C, prenyl acceptor
Text: as §1

[7] = substrate: O=C1N[C@@H](Cc2c[nH]c3ccccc23)C(=O)N[C@H]1Cc1ccccc1; conditions: 2 mM DMAPP, 5 mM CaCl2, 37 °C, prenyl acceptor
Text: as §1

[8] = substrate: [H][C@@]12CCCN1C(=O)[C@H](Cc1c[nH]c3ccccc13)NC2=O; conditions: 2 mM DMAPP, 5 mM CaCl2, 37 °C, prenyl acceptor
Text: as §1

B1: 7-DMATS (7-dimethylallyl tryptophan synthase) (Aspergillus fumigatus Af293) (protein)
chain: MSIGAEIDSLVPAPPGLNGTAAGYPAKTQKELSNGDFDAHDGLSLAQLTPYDVLTAALPLPAPASSTGFWWRETGPVMSKLLAKANYPLYTHYKYLMLYHTHILPLLGPRPPLENSTHPSPSNAPWRSFLTDDFTPLEPSWNVNGNSEAQSTIRLGIEPIGFEAGAAADPFNQAAVTQFMHSYEATEVGATLTLFEHFRNDMFVGPETYAALRAKIPEGEHTTQSFLAFDLDAGRVTTKAYFFPILMSLKTGQSTTKVVSDSILHLALKSEVWGVQTIAAMSVMEAWIGSYGGAAKTEMISVDCVNEADSRIKIYVRMPHTSLRKVKEAYCLGGRLTDENTKEGLKLLDELWRTVFGIDDEDAELPQNSHRTAGTIFNFELRPGKWFPEPKVYLPVRHYCESDMQIASRLQTFFGRLGWHNMEKDYCKHLEDLFPHHPLSSSTGTHTFLSFSYKKQKGVYMTMYYNLRVYST
notes: recombinant, overproduced in E. coli and purified as in Kremer et al; vector pQE60 named
[1]
  Km: 79.6 µM
  Vmax: 0.072 µM/min
  kcat: 0.0693 s⁻¹
  kcat/Km: 871 M⁻¹ s⁻¹
[2]
  Km: 823.2 µM
  Vmax: 0.0654 µM/min
  kcat: 0.0586 s⁻¹
  kcat/Km: 71.2 M⁻¹ s⁻¹
[3]
  Km: 867.8 µM
  Vmax: 0.0141 µM/min
  kcat: 0.0127 s⁻¹
  kcat/Km: 14.6 M⁻¹ s⁻¹
[4]
  Km: 169.7 µM
  Vmax: 0.145 µM/min
  kcat: 0.131 s⁻¹
  kcat/Km: 770 M⁻¹ s⁻¹
[5]
  Km: 225.8 µM
  Vmax: 0.0459 µM/min
  kcat: 0.0413 s⁻¹
  kcat/Km: 183 M⁻¹ s⁻¹
[6]
  Km: 562.4 µM
  Vmax: 0.0515 µM/min
  kcat: 0.0464 s⁻¹
  kcat/Km: 82.4 M⁻¹ s⁻¹
[7]
  Km: 102.9 µM
  Vmax: 0.0359 µM/min
  kcat: 0.0323 s⁻¹
  kcat/Km: 314 M⁻¹ s⁻¹
[8]
  Km: 880.1 µM
  Vmax: 0.0228 µM/min
  kcat: 0.0205 s⁻¹
  kcat/Km: 23.3 M⁻¹ s⁻¹
